Target: Thrombin (human alpha-thrombin) (Homo sapiens, UniProt P00734;P00734 P00734:328-363,P00734:364-622)
Assay: nanopore without motor protein; lower-current events with increasing thrombin concentration

B1: 29-mer thrombin-binding aptamer (TBA) with 30xT threading strand (ssDNA)
DNA: TTTTTTTTTTTTTTTTTTTTTTTTTTTTTTAGTCCGTGGTAGGGCAGGTTGGGGTGACT
B1: binds.
